Patent US20150374794A1 (Novo Nordisk, published 2015)
Numbered stars: 1 amine (or outer) side, 2 acyl side, 3 side chain; on linkers, the order of the positions; unused ones are H or OH. Square brackets hold non-standard residues; d marks the D form. Side chains are listed from the residue outwards. Ends that are not written are not given here. * marks the point of attachment. C18 diacid = O=C(O)CCCCCCCCCCCCCCCCC(=O)*; γGlu = O=C(O)[C@H](CCC(=O)[*:2])N[*:1]; Ac4c = NC1(C(=O)O)CCC1; AEEA = NCCOCCOCC(=O)O; Aib = CC(C)(N)C(=O)O

B1: N^ε28-[2-[2-[2-[[2-[2-[2-[[(4S)-4-carboxy-4-[[(4S)-4-carboxy-4-[[(4S)-4-carboxy-4-(17-carboxyheptadecanoylamino)butanoyl]amino]butanoyl]amino]butanoyl]amino]eth … (peptide)
peptide: H[Aib]QGTFTSDLSKYLESRRARDFVQWLLK([AEEA-AEEA-γGlu-γGlu-γGlu-C18 diacid])T-NH2
modifications: N-terminus assumed
SMILES: CC(C)C[C@H](NC(=O)[C@H](Cc1ccc(O)cc1)NC(=O)[C@H](CCCCN)NC(=O)[C@H](CO)NC(=O)[C@H](CC(C)C)NC(=O)[C@H](CC(=O)O)NC(=O)[C@H](CO)NC(=O)[C@@H](NC(=O)[C@H](Cc1ccccc1)NC(=O)[C@@H](NC(=O)CNC(=O)[C@H](CCC(N)=O)NC(=O)C(C)(C)NC(=O)[C@@H](N)Cc1c[nH]cn1)[C@@H](C)O)[C@@H](C)O)C(=O)N[C@@H](CCC(=O)O)C(=O)N[C@@H](CO)C(=O)N[C@@H](CCCNC(=N)N)C(=O)N[C@@H](CCCNC(=N)N)C(=O)N[C@@H](C)C(=O)N[C@@H](CCCNC(=N)N)C(=O)N[C@@H](CC(=O)O)C(=O)N[C@@H](Cc1ccccc1)C(=O)N[C@H](C(=O)N[C@@H](CCC(N)=O)C(=O)N[C@@H](Cc1c[nH]c2ccccc12)C(=O)N[C@@H](CC(C)C)C(=O)N[C@@H](CC(C)C)C(=O)N[C@@H](CCCCNC(=O)COCCOCCNC(=O)COCCOCCNC(=O)CC[C@H](NC(=O)CC[C@H](NC(=O)CC[C@H](NC(=O)CCCCCCCCCCCCCCCCC(=O)O)C(=O)O)C(=O)O)C(=O)O)C(=O)N[C@H](C(N)=O)[C@@H](C)O)C(C)C
B2: N^ε28-[2-[2-[2-[[2-[2-[2-[[(4S)-4-carboxy-4-[[(4S)-4-carboxy-4-[[(4S)-4-carboxy-4-(17-carboxyheptadecanoylamino)butanoyl]amino]butanoyl]amino]butanoyl]amino]eth … (peptide)
peptide: H[Ac4c]QGTFTSDLSKYLESRRAQDFVQWLLK([AEEA-AEEA-γGlu-γGlu-γGlu-C18 diacid])T-NH2
modifications: N-terminus assumed
SMILES: CC(C)C[C@H](NC(=O)[C@H](Cc1ccc(O)cc1)NC(=O)[C@H](CCCCN)NC(=O)[C@H](CO)NC(=O)[C@H](CC(C)C)NC(=O)[C@H](CC(=O)O)NC(=O)[C@H](CO)NC(=O)[C@@H](NC(=O)[C@H](Cc1ccccc1)NC(=O)[C@@H](NC(=O)CNC(=O)[C@H](CCC(N)=O)NC(=O)C1(NC(=O)[C@@H](N)Cc2c[nH]cn2)CCC1)[C@@H](C)O)[C@@H](C)O)C(=O)N[C@@H](CCC(=O)O)C(=O)N[C@@H](CO)C(=O)N[C@@H](CCCNC(=N)N)C(=O)N[C@@H](CCCNC(=N)N)C(=O)N[C@@H](C)C(=O)N[C@@H](CCC(N)=O)C(=O)N[C@@H](CC(=O)O)C(=O)N[C@@H](Cc1ccccc1)C(=O)N[C@H](C(=O)N[C@@H](CCC(N)=O)C(=O)N[C@@H](Cc1c[nH]c2ccccc12)C(=O)N[C@@H](CC(C)C)C(=O)N[C@@H](CC(C)C)C(=O)N[C@@H](CCCCNC(=O)COCCOCCNC(=O)COCCOCCNC(=O)CC[C@H](NC(=O)CC[C@H](NC(=O)CC[C@H](NC(=O)CCCCCCCCCCCCCCCCC(=O)O)C(=O)O)C(=O)O)C(=O)O)C(=O)N[C@H](C(N)=O)[C@@H](C)O)C(C)C
B3: N^ε28-[2-[2-[2-[[2-[2-[2-[[(4S)-4-carboxy-4-[[(4S)-4-carboxy-4-[[(4S)-4-carboxy-4-(17-carboxyheptadecanoylamino)butanoyl]amino]butanoyl]amino]butanoyl]amino]eth … (peptide)
peptide: H[Aib]QGTFTSDLSRYLDARRAQDFVQWLLK([AEEA-AEEA-γGlu-γGlu-γGlu-C18 diacid])T-NH2
modifications: N-terminus assumed
SMILES: CC(C)C[C@H](NC(=O)[C@H](Cc1ccc(O)cc1)NC(=O)[C@H](CCCNC(=N)N)NC(=O)[C@H](CO)NC(=O)[C@H](CC(C)C)NC(=O)[C@H](CC(=O)O)NC(=O)[C@H](CO)NC(=O)[C@@H](NC(=O)[C@H](Cc1ccccc1)NC(=O)[C@@H](NC(=O)CNC(=O)[C@H](CCC(N)=O)NC(=O)C(C)(C)NC(=O)[C@@H](N)Cc1c[nH]cn1)[C@@H](C)O)[C@@H](C)O)C(=O)N[C@@H](CC(=O)O)C(=O)N[C@@H](C)C(=O)N[C@@H](CCCNC(=N)N)C(=O)N[C@@H](CCCNC(=N)N)C(=O)N[C@@H](C)C(=O)N[C@@H](CCC(N)=O)C(=O)N[C@@H](CC(=O)O)C(=O)N[C@@H](Cc1ccccc1)C(=O)N[C@H](C(=O)N[C@@H](CCC(N)=O)C(=O)N[C@@H](Cc1c[nH]c2ccccc12)C(=O)N[C@@H](CC(C)C)C(=O)N[C@@H](CC(C)C)C(=O)N[C@@H](CCCCNC(=O)COCCOCCNC(=O)COCCOCCNC(=O)CC[C@H](NC(=O)CC[C@H](NC(=O)CC[C@H](NC(=O)CCCCCCCCCCCCCCCCC(=O)O)C(=O)O)C(=O)O)C(=O)O)C(=O)N[C@H](C(N)=O)[C@@H](C)O)C(C)C
B4: N^ε28-[2-[2-[2-[[2-[2-[2-[[(4S)-4-carboxy-4-[[(4S)-4-carboxy-4-[[(4S)-4-carboxy-4-(17-carboxyheptadecanoylamino)butanoyl]amino]butanoyl]amino]butanoyl]amino]eth … (peptide)
peptide: H[Aib]QGTFTSDVSKYLDLRRAQDFVQWLLK([AEEA-AEEA-γGlu-γGlu-γGlu-C18 diacid])T-NH2
modifications: N-terminus assumed
SMILES: CC(C)C[C@H](NC(=O)[C@H](CC(=O)O)NC(=O)[C@H](CC(C)C)NC(=O)[C@H](Cc1ccc(O)cc1)NC(=O)[C@H](CCCCN)NC(=O)[C@H](CO)NC(=O)[C@@H](NC(=O)[C@H](CC(=O)O)NC(=O)[C@H](CO)NC(=O)[C@@H](NC(=O)[C@H](Cc1ccccc1)NC(=O)[C@@H](NC(=O)CNC(=O)[C@H](CCC(N)=O)NC(=O)C(C)(C)NC(=O)[C@@H](N)Cc1c[nH]cn1)[C@@H](C)O)[C@@H](C)O)C(C)C)C(=O)N[C@@H](CCCNC(=N)N)C(=O)N[C@@H](CCCNC(=N)N)C(=O)N[C@@H](C)C(=O)N[C@@H](CCC(N)=O)C(=O)N[C@@H](CC(=O)O)C(=O)N[C@@H](Cc1ccccc1)C(=O)N[C@H](C(=O)N[C@@H](CCC(N)=O)C(=O)N[C@@H](Cc1c[nH]c2ccccc12)C(=O)N[C@@H](CC(C)C)C(=O)N[C@@H](CC(C)C)C(=O)N[C@@H](CCCCNC(=O)COCCOCCNC(=O)COCCOCCNC(=O)CC[C@H](NC(=O)CC[C@H](NC(=O)CC[C@H](NC(=O)CCCCCCCCCCCCCCCCC(=O)O)C(=O)O)C(=O)O)C(=O)O)C(=O)N[C@H](C(N)=O)[C@@H](C)O)C(C)C
B5: N^ε28-[2-[2-[2-[[2-[2-[2-[[(4S)-4-carboxy-4-[[(4S)-4-carboxy-4-[[(4S)-4-carboxy-4-(17-carboxyheptadecanoylamino)butanoyl]amino]butanoyl]amino]butanoyl]amino]eth … (peptide)
peptide: H[Aib]QGTFTSDLSKYLDARRARDFVQWLLK([AEEA-AEEA-γGlu-γGlu-γGlu-C18 diacid])T-NH2
modifications: N-terminus assumed
SMILES: CC(C)C[C@H](NC(=O)[C@H](Cc1ccc(O)cc1)NC(=O)[C@H](CCCCN)NC(=O)[C@H](CO)NC(=O)[C@H](CC(C)C)NC(=O)[C@H](CC(=O)O)NC(=O)[C@H](CO)NC(=O)[C@@H](NC(=O)[C@H](Cc1ccccc1)NC(=O)[C@@H](NC(=O)CNC(=O)[C@H](CCC(N)=O)NC(=O)C(C)(C)NC(=O)[C@@H](N)Cc1c[nH]cn1)[C@@H](C)O)[C@@H](C)O)C(=O)N[C@@H](CC(=O)O)C(=O)N[C@@H](C)C(=O)N[C@@H](CCCNC(=N)N)C(=O)N[C@@H](CCCNC(=N)N)C(=O)N[C@@H](C)C(=O)N[C@@H](CCCNC(=N)N)C(=O)N[C@@H](CC(=O)O)C(=O)N[C@@H](Cc1ccccc1)C(=O)N[C@H](C(=O)N[C@@H](CCC(N)=O)C(=O)N[C@@H](Cc1c[nH]c2ccccc12)C(=O)N[C@@H](CC(C)C)C(=O)N[C@@H](CC(C)C)C(=O)N[C@@H](CCCCNC(=O)COCCOCCNC(=O)COCCOCCNC(=O)CC[C@H](NC(=O)CC[C@H](NC(=O)CC[C@H](NC(=O)CCCCCCCCCCCCCCCCC(=O)O)C(=O)O)C(=O)O)C(=O)O)C(=O)N[C@H](C(N)=O)[C@@H](C)O)C(C)C
B6: N^ε28-[2-[2-[2-[[2-[2-[2-[[(4S)-4-carboxy-4-[[(4S)-4-carboxy-4-[[(4S)-4-carboxy-4-(17-carboxyheptadecanoylamino)butanoyl]amino]butanoyl]amino]butanoyl]amino]eth … (peptide)
peptide: H[Aib]QGTFTSDVSKYLDARRAQDFVQWLLK([AEEA-AEEA-γGlu-γGlu-γGlu-C18 diacid])T-NH2
modifications: N-terminus assumed
SMILES: CC(C)C[C@H](NC(=O)[C@H](Cc1ccc(O)cc1)NC(=O)[C@H](CCCCN)NC(=O)[C@H](CO)NC(=O)[C@@H](NC(=O)[C@H](CC(=O)O)NC(=O)[C@H](CO)NC(=O)[C@@H](NC(=O)[C@H](Cc1ccccc1)NC(=O)[C@@H](NC(=O)CNC(=O)[C@H](CCC(N)=O)NC(=O)C(C)(C)NC(=O)[C@@H](N)Cc1c[nH]cn1)[C@@H](C)O)[C@@H](C)O)C(C)C)C(=O)N[C@@H](CC(=O)O)C(=O)N[C@@H](C)C(=O)N[C@@H](CCCNC(=N)N)C(=O)N[C@@H](CCCNC(=N)N)C(=O)N[C@@H](C)C(=O)N[C@@H](CCC(N)=O)C(=O)N[C@@H](CC(=O)O)C(=O)N[C@@H](Cc1ccccc1)C(=O)N[C@H](C(=O)N[C@@H](CCC(N)=O)C(=O)N[C@@H](Cc1c[nH]c2ccccc12)C(=O)N[C@@H](CC(C)C)C(=O)N[C@@H](CC(C)C)C(=O)N[C@@H](CCCCNC(=O)COCCOCCNC(=O)COCCOCCNC(=O)CC[C@H](NC(=O)CC[C@H](NC(=O)CC[C@H](NC(=O)CCCCCCCCCCCCCCCCC(=O)O)C(=O)O)C(=O)O)C(=O)O)C(=O)N[C@H](C(N)=O)[C@@H](C)O)C(C)C

Experiments:
human glucagon receptor [1] = target: T1, human glucagon receptor (human, UniProt P47871 26-477); test: cell-based or functional assay
T1 sequence (P47871 26-477): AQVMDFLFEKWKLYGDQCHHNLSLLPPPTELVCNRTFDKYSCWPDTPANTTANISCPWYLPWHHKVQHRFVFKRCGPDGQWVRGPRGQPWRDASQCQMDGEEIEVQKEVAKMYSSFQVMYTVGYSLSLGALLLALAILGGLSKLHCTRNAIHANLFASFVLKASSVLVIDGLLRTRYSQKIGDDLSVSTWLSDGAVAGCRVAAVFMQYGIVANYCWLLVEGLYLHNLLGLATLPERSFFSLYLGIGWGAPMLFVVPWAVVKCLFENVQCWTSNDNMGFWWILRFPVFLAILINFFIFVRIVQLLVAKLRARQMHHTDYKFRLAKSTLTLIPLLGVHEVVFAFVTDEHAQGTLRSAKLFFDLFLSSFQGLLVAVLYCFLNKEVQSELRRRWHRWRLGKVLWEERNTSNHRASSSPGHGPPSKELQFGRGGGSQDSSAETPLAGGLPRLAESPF

human GLP-1 receptor [2] = target: T2, human GLP-1 receptor (human, UniProt P43220 24-463); test: cell-based or functional assay
human GLP-1 receptor [3] = target: T2, human GLP-1 receptor; test: displacement of 125I-GLP-1(7-36)NH2, membranes with human GLP-1R, SPA
Procedure: (§1) The receptor binding of each compound to the human GLP-1 receptor was measured in a displacement binding assay. […] Each derivative was added in a series of concentrations to isolated membranes containing the human GLP-1 receptor and displacement of the labelled ligand was monitored. The receptor binding was reported as the concentration at which half of the labelled ligand was displaced from the receptor, the IC₅₀ value.

human glucagon receptor [4] = target: T1, human glucagon receptor; test: displacement of 125I-glucagon, membranes with human glucagon receptor, SPA
Procedure: as §1, with “human glucagon” for “human GLP-1”, “ligand is” for “ligand was”

Binder | EC50 GlucR, CRE luciferase reporter gene assay in BHK cells (human glucagon receptor [1]) [nM] | EC50 GLP-1R, CRE luciferase reporter gene assay in BHK cells (human GLP-1 receptor [2]) [nM] | IC50 (human GLP-1 receptor [3]) [nM] | IC50 (human glucagon receptor [4]) [nM]
B1 | 0.129 | 0.003 | 0.2 | 19
B2 | 0.024 | 0.007 | 0.8 | 7.7
B3 | 0.02 | 0.003 | 0.9 | 5.5
B4 | 0.017 | 0.004 | 0.7 | 5.7
B5 | 0.0113 | 0.0043 | 0.2 | 2.6
B6 | 0.03 | 0.0015 | 0.2 | 3.2
